The source of these data is publication PMC10945275.

Targets include G574V-EGF receptor (UniProt P00533); wild-type EGF receptor (UniProt P00533); R84K-EGF receptor (UniProt P00533); A265V-EGF receptor (UniProt P00533).
What all share (assay): radioligand binding

pEC50: −log10 of the molar value.

Broadly, the pEC50 is the EC50 on a negative log10 scale, so that one unit is a factor of ten. Higher therefore signals a low EC50. Turning to 125I-EGF (ligand), the negative-log EC50 (pEC50) with G574V-EGF receptor was 9.77; with wild-type EGF receptor, 9.12; with R84K-EGF receptor it was 10.44; with A265V-EGF receptor, 9.55.
